Results published in publication PMC8184817, “Transmission of light signals from the light-oxygen-voltage core via the hydrophobic region of the β-sheet surface in aureochrome-1” (Scientific Reports, 2021).
Residue numbers refer to the chain shown, from its start.

How the values were obtained:
Conditions in all cases: protein: recombinant; chain copies: 2; label: Alexa Fluor647 (EMSA); biotin (QCM); blunt; self-complementary palindrome, 2 copies
PZ L212A = target: T1, PZ L212A (Vaucheria frigida? (VfAUREO1), UniProt A8QW55 113-348, C162S;C182S;L212A); experiment: EMSA; QCM; dark state; EC50 similar to wtPZ; EMSA: 5% polyacrylamide gel, 25 C, dark or blue light 5 W/m2; QCM: 27 MHz, QCM buffer, 25 C; buffer, salt and pH not given (earlier papers cited); EC50 values (nM, per monomer) only in figures
T1 sequence: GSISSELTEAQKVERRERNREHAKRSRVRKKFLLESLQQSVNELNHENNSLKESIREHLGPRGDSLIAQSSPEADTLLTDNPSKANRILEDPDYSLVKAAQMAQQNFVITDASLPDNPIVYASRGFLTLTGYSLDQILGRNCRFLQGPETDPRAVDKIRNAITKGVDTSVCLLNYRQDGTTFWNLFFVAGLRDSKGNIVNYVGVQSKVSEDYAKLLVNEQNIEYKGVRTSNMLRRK

PZ F219V = target: T2, PZ F219V (Vaucheria frigida? (VfAUREO1), UniProt A8QW55 113-348, C162S;C182S;F219V); experiment: EMSA; QCM; dark state; low EC50; EMSA: 5% polyacrylamide gel, 25 C, dark or blue light 5 W/m2; QCM: 27 MHz, QCM buffer, 25 C; buffer, salt and pH not given (earlier papers cited); EC50 values (nM, per monomer) only in figures
T2 sequence: T1 sequence with A100L, F107V

PZ V314A = target: T3, PZ V314A (Vaucheria frigida? (VfAUREO1), UniProt A8QW55 113-348, C162S;C182S;V314A); experiment: EMSA; QCM; dark state; altered EC50; EMSA: 5% polyacrylamide gel, 25 C, dark or blue light 5 W/m2; QCM: 27 MHz, QCM buffer, 25 C; buffer, salt and pH not given (earlier papers cited); EC50 values (nM, per monomer) only in figures
T3 sequence: T1 sequence with A100L, V202A

PZ V316A = target: T4, PZ V316A (Vaucheria frigida? (VfAUREO1), UniProt A8QW55 113-348, C162S;C182S;V316A); experiment: as above
T4 sequence: T1 sequence with A100L, V204A

Measured: binding result

B1: dsApo (dsDNA)
DNA 1: GCTGTCTGACGTCAGACAGC
DNA 2: GCTGTCTGACGTCAGACAGC
binds: PZ L212A | PZ F219V | PZ V314A | PZ V316A
